In the supplement of paper PMC7125110:
± gives the standard error. For some assays here: This sample holds only a part of the variants without activity.

B1: glmS ribozyme (parent)
chain: AUAAAAGCGCCAGAACUACAGAAAUGUAGUUGACGAGGAGGAGGUUUAUCGAAUUUUCGGCGGAUGCCUCCAAA

Experiments:
Settings in all cases: with glucosamine-6-phosphate
glucosamine-6-phosphate [1] = variants of: B1; assay: kcat; higher = faster cleavage; RNA array
Outline: (§1)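 Barcoded ribozyme variants on sequenced MiSeq chips were transcribed in situ by E. coli RNA polymerase and followed at 37 °C through a hybridised Cy3 probe. Glucosamine-6-phosphate at 40 μM to 10 mM in HEPES/KCl/Mg(OAc)2 buffer was flowed in, and tiles were imaged over ~14 h. Signals were normalised to baseline and to non-cleaving reference variants, and per-tile medians were fit to one- or two-exponential decays to give kobs. Weighted Michaelis–Menten fits across concentrations gave kcat and KM.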

glucosamine-6-phosphate [2] = variants of: B1; assay: KM; higher = weaker cofactor use; RNA array
Outline: as §1

glucosamine-6-phosphate [3] = variants of: B1; assay: self-cleavage kobs at 640 uM GlcN6P; higher = faster cleavage; RNA array
Outline: as §1

glucosamine-6-phosphate [4] = variants of: B1; assay: self-cleavage kobs at 2500 uM GlcN6P; higher = faster cleavage; RNA array
Outline: as §1

glucosamine-6-phosphate [5] = variants of: B1; assay: self-cleavage kobs at 10000 uM GlcN6P; higher = faster cleavage; RNA array
Outline: as §1

glucosamine-6-phosphate [6] = variants of: B1; assay: self-cleavage kobs at 40 uM GlcN6P; higher = faster cleavage; RNA array
Outline: as §1

glucosamine-6-phosphate [7] = variants of: B1; assay: self-cleavage kobs at 160 uM GlcN6P; higher = faster cleavage; RNA array
Outline: as §1

| Variant | kcat (glucosamine-6-phosphate [1]) [s⁻¹] | KM (glucosamine-6-phosphate [2]) [µM] | self-cleavage kobs at 640 uM GlcN6P (glucosamine-6-phosphate [3]) [s⁻¹] | self-cleavage kobs at 2500 uM GlcN6P (glucosamine-6-phosphate [4]) [s⁻¹] | self-cleavage kobs at 10000 uM GlcN6P (glucosamine-6-phosphate [5]) [s⁻¹] | self-cleavage kobs at 40 uM GlcN6P (glucosamine-6-phosphate [6]) [s⁻¹] | self-cleavage kobs at 160 uM GlcN6P (glucosamine-6-phosphate [7]) [s⁻¹] |
| --- | --- | --- | --- | --- | --- | --- | --- |
| U31G U49G | 0.000191 ± 2.6e-06 | 2140 ± 89 | 4.38e-05 ± 1.9e-05 | 0.000102 ± 1.4e-05 | 0.000157 ± 1.4e-05 | – | – |
| U45A C67G | 0.000766 ± 0.00012 | 2290 ± 680 | 0.000163 ± 2.6e-05 | 0.000606 ± 0.00012 | 0.0006 ± 6.8e-05 | – | – |
| C16U A52U | 0.00041 ± 1.4e-05 | 5030 ± 320 | 4.82e-05 ± 1.2e-05 | 0.000132 ± 2.2e-05 | 0.000274 ± 2.9e-05 | < 1e-05 | – |
| A39G A48G | 0.000124 ± 2.2e-05 | – | – | 0.00013 ± 2.7e-05 | 0.000106 ± 1.4e-05 | – | – |
| G37U C61A | 1.07e-05 ± 1.5e-06 | – | – | – | < 1e-05 | – | – |
| G38A G51U | < 1e-05 | – | < 1e-05 | – | < 1e-05 | < 1e-05 | – |
| U55G C58G | 0.000161 ± 1.7e-05 | 6790 ± 1400 | – | 4.5e-05 ± 8.6e-06 | 9.57e-05 ± 1.1e-05 | – | – |
| G40U U47C | 0.00133 ± 0.00022 | 2010 ± 550 | 0.000287 ± 3.6e-05 | 0.000958 ± 0.00014 | 0.00106 ± 0.00013 | 3.24e-05 ± 8.9e-06 | 0.000104 ± 2.3e-05 |
| U30A C67G | 0.000166 ± 1.4e-05 | 1650 ± 330 | 5.03e-05 ± 5.9e-06 | 9.16e-05 ± 8.4e-06 | 0.00015 ± 1.3e-05 | – | – |
| A33U U47G | 4.65e-05 ± 3.9e-06 | – | – | 4.09e-05 ± 6.6e-06 | 4.2e-05 ± 5.3e-06 | < 1e-05 | – |
| G13U G51A | < 1e-05 | – | < 1e-05 | < 1e-05 | < 1e-05 | – | – |
| G40A A53U | 0.00621 ± 0.0028 | – | 0.00107 ± 0.00016 | 0.00268 ± 0.00057 | 0.00711 ± 0.001 | 0.00015 ± 1.5e-05 | 0.000422 ± 0.00011 |
| G62U C67U | < 1e-05 | – | – | – | < 1e-05 | – | – |
| C34G C68A | 2.06e-05 ± 8.4e-06 | – | – | – | – | – | – |
| A39C C71G | 1.47e-05 ± 1.2e-06 | – | – | – | – | – | < 1e-05 |
| A12G U57C | 1.17e-05 ± 1.7e-06 | – | – | – | – | < 1e-05 | – |
| A12C G40C | 0.000942 ± 0.00014 | 2310 ± 620 | 0.0002 ± 6.3e-05 | 0.000666 ± 0.00012 | 0.000746 ± 6.8e-05 | 3.01e-05 ± 9.1e-06 | 5.51e-05 ± 8.5e-06 |
| G44C A53G | 0.000232 ± 7.9e-06 | 3060 ± 220 | 3.96e-05 ± 1.4e-05 | 0.000105 ± 1.9e-05 | 0.000177 ± 3e-05 | – | – |

| Variant | kcat (glucosamine-6-phosphate [1]) [s⁻¹] | KM (glucosamine-6-phosphate [2]) [µM] | self-cleavage kobs at 640 uM GlcN6P (glucosamine-6-phosphate [3]) [s⁻¹] | self-cleavage kobs at 2500 uM GlcN6P (glucosamine-6-phosphate [4]) [s⁻¹] | self-cleavage kobs at 10000 uM GlcN6P (glucosamine-6-phosphate [5]) [s⁻¹] | self-cleavage kobs at 40 uM GlcN6P (glucosamine-6-phosphate [6]) [s⁻¹] | self-cleavage kobs at 160 uM GlcN6P (glucosamine-6-phosphate [7]) [s⁻¹] |
| --- | --- | --- | --- | --- | --- | --- | --- |
| A33U A53G | 3.38e-05 ± 6.8e-06 | – | – | 3.39e-05 ± 1e-05 | 2.98e-05 ± 6.7e-06 | < 1e-05 | – |
| A53U A64G | 0.0234 ± 0.0024 | 1970 ± 260 | 0.00551 ± 0.0013 | 0.0138 ± 0.0041 | 0.0195 ± 0.0038 | 0.000491 ± 6.1e-05 | 0.00148 ± 0.00041 |
| G13U U46G A52C C67U C70G | 2.41e-05 ± 6.8e-06 | – | – | – | – | – | – |
| C10U C68G C70U | 7.35e-05 ± 2.9e-05 | – | 0.00013 ± 2.8e-05 | 5.98e-05 ± 1.4e-05 | – | – | 3.3e-05 ± 1.5e-05 |
| C16A G29C | 0.00401 ± 0.0015 | 1940 ± 970 | 0.000949 ± 0.00011 | 0.00217 ± 0.0003 | 0.00391 ± 0.00075 | 0.000114 ± 1.3e-05 | 0.000215 ± 4.5e-05 |
| C10A A12U C71U | 1.55e-05 ± 6.5e-07 | 21.5 ± 9.2 | – | – | – | – | – |
| U45C C67A | 0.00652 ± 0.00083 | 2490 ± 470 | 0.00119 ± 0.00026 | 0.00392 ± 0.0013 | 0.00519 ± 0.001 | 0.000122 ± 4.8e-05 | 0.000424 ± 0.00012 |
| A12U A53C | 0.0145 ± 0.006 | – | 0.0051 ± 0.0014 | 0.00439 ± 0.0022 | 0.0183 ± 0.0027 | 0.000569 ± 7.4e-05 | – |
| U46G G66A | 0.00746 ± 0.0016 | 2580 ± 720 | 0.00155 ± 0.00019 | 0.00502 ± 0.0011 | 0.00541 ± 0.001 | 0.000106 ± 1.6e-05 | – |
| A52U C67U | 0.000336 ± 2.3e-05 | 2300 ± 310 | 7.82e-05 ± 1e-05 | 0.000163 ± 2e-05 | 0.00028 ± 2.8e-05 | – | – |
| U46C U56G | 0.00195 ± 0.00027 | 1390 ± 310 | 0.000736 ± 8.1e-05 | 0.00128 ± 0.00017 | 0.00164 ± 0.00018 | 5.6e-05 ± 9.5e-06 | 0.000159 ± 3e-05 |
| U31A G41C | 0.000118 ± 1.6e-05 | 501 ± 200 | 6.84e-05 ± 1.6e-05 | 9.73e-05 ± 2.2e-05 | – | – | – |
| A6G U56G U69G | 1.41e-05 ± 3e-06 | – | – | – | – | – | – |
| C10U G38U | < 1e-05 | – | – | – | – | – | – |
| A6C U65G | 2.87e-05 ± 1.5e-06 | 342 ± 150 | – | – | 2.71e-05 ± 1.1e-05 | – | – |
| C10U C70G | 2.35e-05 ± 4.9e-06 | – | – | 2.76e-05 ± 1.3e-05 | – | – | – |
| U56G C70U | 0.00109 ± 0.00036 | – | 0.000908 ± 0.00022 | 0.000943 ± 0.0003 | 0.00182 ± 0.00036 | 0.000308 ± 4.6e-05 | 0.000437 ± 7.8e-05 |
